Test results taken from ChEMBL document CHEMBL2074236, “Renal organic cation and nucleoside transport” (Biochem Pharmacol, 2002).

B1: Solute carrier family 22 member 2 (Rattus norvegicus) (protein)
chain: MSTVDDILEHIGEFHLFQKQTFFLLALLSGAFTPIYVGIVFLGFTPDHHCWSPGAAKLSQRCGWSQAEELNYTVPGLGPSDEASFLSQCMRYEVDWNQSTLDCVDPLSSLAADRNQLPLGPCEHGWVYNTPGSSIVTEFNLVCAHSWMLDLFQSVVNVGFFIGAMMIGYLADRFGRKFCLLVTILINAISGALMAISPNYAWMLVFRFLQGLVSKAGWLIGYILITEFVGLGYRRMVGICYQIAFTVGLLILAGVAYVIPNWRWLQFAVTLPNFCFLLYFWCIPESPRWLISQNKIVKAMKIIKHIAKKNGKSVPVSLQNLTPDEDAGKKLNPSFLDLVRTPQIRKHTLILMYNWFTSSVLYQGLIMHMGLAGDNIYLDFFYSALVEFPAAFIIILTIDRVGRRYPWAVSNMVAGAACLASVFIPDDLQWLKITIACLGRMGITMAYEMVCLVNAELYPTYIRNLGVLVCSSMCDIGGIITPFLVYRLTDIWMEFPLVVFAVVGLVAGALVLLLPETKGKALPETIEDAENMQRPRKKKEKRIYLQVKQADRPLS
B2: Solute carrier family 22 member 1 (Rattus norvegicus) (protein)
chain: MPTVDDVLEQVGEFGWFQKQAFLLLCLISASLAPIYVGIVFLGFTPGHYCQNPGVAELSQRCGWSQAEELNYTVPGLGPSDEASFLSQCMRYEVDWNQSTLDCVDPLSSLVANRSQLPLGPCEHGWVYDTPGSSIVTEFNLVCGDAWKVDLFQSCVNLGFFLGSLVVGYIADRFGRKLCLLVTTLVTSVSGVLTAVAPDYTSMLLFRLLQGMVSKGSWVSGYTLITEFVGSGYRRTTAILYQMAFTVGLVGLAGVAYAIPDWRWLQLAVSLPTFLFLLYYWFVPESPRWLLSQKRTTRAVRIMEQIAQKNGKVPPADLKMLCLEEDASEKRSPSFADLFRTPNLRKHTVILMYLWFSCAVLYQGLIMHVGATGANLYLDFFYSSLVEFPAAFIILVTIDRIGRIYPIAASNLVTGAACLLMIFIPHELHWLNVTLACLGRMGATIVLQMVCLVNAELYPTFIRNLGMMVCSALCDLGGIFTPFMVFRLMEVWQALPLILFGVLGLTAGAMTLLLPETKGVALPETIEEAENLGRRKSKAKENTIYLQVQTGKSSST

Substrate: Nc1ncnc2c1ccn2[C@H]1C[C@H](O)[C@@H](CO)O1
Assay: TP_TRANSPORTER: uptake (pH 5.4) in Xenopus laevis oocytes
Assay type: functional, cell-based, Oocyte

Row | Protein | Km [µM]
1 | B1 | 212
2 | B2 | 23
